From publication PMC8808184 (2021) come the findings set out here.

One experiment has as its target T1, hCNTN5 (Homo sapiens (Human), UniProt O94779).
T1 chain: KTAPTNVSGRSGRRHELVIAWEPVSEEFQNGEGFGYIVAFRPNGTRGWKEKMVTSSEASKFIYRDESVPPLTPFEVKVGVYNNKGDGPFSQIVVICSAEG
Put plainly: BLI steady state, CNTN FN1-FN3 over biotinylated E1.

A further experiment concerns the target T2, hCNTN3 (Homo sapiens (Human), UniProt Q9P232).
T2 chain: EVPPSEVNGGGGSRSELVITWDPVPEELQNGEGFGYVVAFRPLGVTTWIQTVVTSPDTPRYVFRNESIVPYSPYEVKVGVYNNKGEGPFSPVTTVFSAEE
The experiment is described as above.

B1: hAPLP2 (protein)
chain: GEFVSDVLLVPEKCQFFHKERMEVCENHQHWHTVVKEACLTQGMTLYSYGMLLPCGVDQFHGTEYVCCPQ
A word on the Kd: it is the equilibrium constant for the complex coming apart. The molecule B1 yielded a Kd in the experiment with hCNTN5 of 38.6 µM.

B2: hAPLP1 (protein)
chain: GEFVSEALLVPEGCRFLHQERMDQCESSTRRHQEAQEACSSQGLILHGSGMLLPCGSDRFRGVEYVCCPP
As to B2, the Kd with hCNTN5 was determined as 10.9 µM; with hCNTN3 it was 9.1 µM.
